The source of these data is paper PMC7056315 (Science Advances, 2020).

Assay [1] concerns the target KcsA-Shaker channel (KcsA pore carried in the Shaker channel) (Drosophila | not stated). Description: […].
The target in assay [2] is human Kv1.3 channel (human) (UniProt P22001). Description: two-electrode voltage clamp. On the technique in general: Two-electrode voltage clamp is typically applied to oocytes expressing channels or transporters.
In assay [3] the target is KcsA-Shaker channel (KcsA pore carried in the Shaker channel) (Drosophila | not stated). As to the kind of experiment: two-electrode voltage clamp.
Assay [4] addresses human Kv1.3 channel (human) (UniProt P22001). Description: […].
Assay [5] concerns the target KcsA-Shaker–Y82V (Drosophila | not stated). Description: […].
Assay [6] has as its target KcsA-Shaker channel (KcsA pore carried in the Shaker channel) (Drosophila | not stated). As to the kind of experiment: two-electrode voltage clamp. This is another data set of the same source.
Assay [7] deals with KcsA-Shaker channels. Description: TEVC block of KcsA-Shaker channels expressed in Xenopus oocytes. The format is cell-based.
Assay [8] deals with KcsA-Shaker–Y82V. Description: TEVC equilibrium inhibition of pore mutant KcsA-Shaker-Y82V in oocytes. As to conditions: KcsA-Shaker–Y82V vs KcsA-Shaker, 0 mV. Format: cell-based.
The target in assay [9] is KcsA-Shaker channels. As to conditions: TEA block of KcsA-Shaker; cited from earlier work.

human Kv1.3 channel (human), sequence (P22001 whole entry): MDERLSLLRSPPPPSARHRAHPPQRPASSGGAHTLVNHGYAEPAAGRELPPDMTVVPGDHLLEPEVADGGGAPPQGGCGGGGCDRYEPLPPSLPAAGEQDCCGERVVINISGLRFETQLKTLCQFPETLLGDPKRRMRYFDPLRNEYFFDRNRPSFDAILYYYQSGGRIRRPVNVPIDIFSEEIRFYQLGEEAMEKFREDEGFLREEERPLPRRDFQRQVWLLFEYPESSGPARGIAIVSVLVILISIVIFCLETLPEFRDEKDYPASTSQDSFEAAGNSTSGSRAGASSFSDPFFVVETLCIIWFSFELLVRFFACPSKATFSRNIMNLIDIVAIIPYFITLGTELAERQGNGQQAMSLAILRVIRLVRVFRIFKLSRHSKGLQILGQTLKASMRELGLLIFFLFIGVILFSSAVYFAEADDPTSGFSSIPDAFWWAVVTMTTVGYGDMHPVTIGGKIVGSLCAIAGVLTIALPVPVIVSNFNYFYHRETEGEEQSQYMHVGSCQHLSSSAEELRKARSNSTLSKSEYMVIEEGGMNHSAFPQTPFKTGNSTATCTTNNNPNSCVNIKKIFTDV

By Ki is commonly meant a dissociation constant, usually derived from enzyme kinetics or from competition with a known ligand. As a reminder, the koff is the first-order rate constant of dissociation. Low values mean slow dissociation, high ones fast dissociation. In general, kon refers to a measure of how fast the partners come together. Regarding Peptide HmK-Tyr^23Ala, in assay [1], the Ki amounted to 162 nM, the koff was determined as 0.15 s⁻¹ and the kon turned out to be 930000 M⁻¹ s⁻¹.

In assay [2], T-ShK–Lys^22Asn (peptide) had a Ki of 0.42 nM and a percent of current blocked (0.1 ng of cRNA) of 70%.

In the case of T-ShK–Arg^24Gln (peptide), in assay [2], the Ki came out at 0.075 nM and the percent of current blocked (0.1 ng of cRNA) turned out to be 93%.

The compound “T-HmK variant Pro^8 to alanine (peptide)” gave a fold decrease of affinity against T-HmK in [3] of 10 fold.

Regarding T-HmK–Arg^24Gln (peptide), in assay [2], the fold change of apparent Ki against T-HmK is 3 fold and the percent of current blocked (0.5 ng of cRNA) was 68%. In assay [3], this compound returned a Ki of 0.91 nM, a koff of 0.0063 s⁻¹ and a kon of 6.9e+06 M⁻¹ s⁻¹.

ShK-Lys22Asn peptide: the Ki in assay [2] was 1.2 nM.

In turn, “T-HmK variant Asn^26 to alanine (peptide)” registered a fold decrease of affinity against T-HmK in assay [3] of 10 fold.

T-HmK–Tyr^23Ala (peptide): in assay [3], the Ki is 28 nM, the koff was 0.17 s⁻¹, the kon came out at 6.1e+06 M⁻¹ s⁻¹ and the percent of current blocked (0.5 ng of cRNA) is less than 38%.

Regarding HmK peptide, in assay [4], the Ki came to 3.1 nM. In assay [5], this compound had a fold decrease of equilibrium affinity against KcsA-Shaker of 550 fold. In addition, in [1], the Ki came to 0.94 nM, the kon stood at 1.3e+06 M⁻¹ s⁻¹, the τoff came out at 714 s and the τon (5 nM HmK) amounted to 126 s. In assay [3], this compound registered an on-rate constant (kon) of 1.2e+06 M⁻¹ s⁻¹ and a τon (30 nM HmK, after TEA wash off) of 27 s.

On to Peptide HmK-Lys^22Asn, for which, in assay [1], the Ki came out at 225 nM, the koff was determined as 0.1 s⁻¹ and the kon worked out at 380000 M⁻¹ s⁻¹.

“T-HmK (membrane-tethered HmK, 46-residue linker) (peptide)” displayed a Ki in assay [6] of 1.1 nM. This compound also returned a Ki in [2] of 3 nM. Moreover, in [3], the Ki was determined as 1.09 nM, the apparent first-order on rate (effective T-HmK 1 nM) is 0.014 s⁻¹, the apparent first-order on rate (effective T-HmK 17 nM) stood at 0.119 s⁻¹ and the koff stood at 0.0073 s⁻¹. In assay [3], the kon came to 6.6e+06 M⁻¹ s⁻¹, the percent of current inhibited (0.01 ng of T-HmK cRNA) is 2%, the percent of current inhibited (0.25 ng of T-HmK cRNA) was determined as 76% and the percent of current inhibited (0.35 ng of T-HmK cRNA) is 87%. In [3], this compound returned a percent of current inhibited (0.5 ng of T-HmK cRNA) greater than 94%, a percent of current inhibited (1 ng of T-HmK cRNA) of 98% and a τon (0.25 ng of T-HmK cRNA) of 33 s.

For `CC[N+](CC)(CC)CC` [TEA, tetraethylammonium], in assay [7] (100 mM TEA), the “block of KcsA-Shaker” value is given as “complete”. In assay [7] (washout of 100 mM TEA), the “τoff (dissociation / unblock)” value is ~ 1.3 s. The “decrease in equilibrium affinity by mutation of pore residue Tyr^82 to Val” value in [8] is on record as ~ 200 fold. In addition, the Ki in [9] was roughly 800 µM.

On to T-HmK-Lys22Asn, for which the koff in assay [4] is 0.93 s⁻¹.

As for ShK-K22N peptide, in assay [4], the fold decrease of inhibition against ShK peptide was determined as 24 fold.

On to T-ShK (membrane-tethered ShK) (peptide), for which the Ki in assay [2] is 0.098 nM.

T-HmK–Lys^22Asn (peptide): in assay [2], the fold change of apparent Ki against T-HmK was 230 fold and the percent of current blocked (0.5 ng of cRNA) turned out to be 2%. In [3], this compound came in with a Ki of 35 nM, a koff of 0.11 s⁻¹, a kon of 3.1e+06 M⁻¹ s⁻¹ and a percent of current blocked (0.5 ng of cRNA) of less than 38%.
